B3: 6xHis-tagged AND-1 SepB (domain or fragment, human, UniProt O75717 336-826, looked up)
chain: GDFLNDNAVEIPSFSKGIINDDEDDEDLMMASGRPRQRSHILEDDENSVDISMLKTGSSLLKEEEEDGQEGSIHNLPLVTSQRPFYDGPMPTPRQKPFQSGSTPLHLTHRFMVWNSIGIIRCYNDEQDNAIDVEFHDTSIHHATHLSNTLNYTIADLSHEAILLACESTDELASKLHCLHFSSWDSSKEWIIDLPQNEDIEAICLGQGWAAAATSALLLRLFTIGGVQKEVFSLAGPVVSMAGHGEQLFIVYHRGTGFDGDQCLGVQLLELGKKKKQILHGDPLPLTRKSYLAWIGFSAEGTPCYVDSEGIVRMLNRGLGNTWTPICNTREHCKGKSDHYWVVGIHENPQQLRCIPCKGSRFPPTLPRPAVAILSFKLPYCQIATEKGQMEEQFWRSVIFHNHLDYLAKNGYEYEESTKNQATKEQQELLMKMLALSCKLEREFRCVELADLMTQNAVNLAIKYASRSRKLILAQKLSELAVEKAAELTAT
notes: AND-1 (WDHD1), human, SepB domain, amino-acid residues 336-826; pRSF-Duet-1 construct from Luca Pellegrini; purification as in Kilkenny et al, 2017; also called 6xHis-SepB; AND-1 SepB domain; source: E. coli BL21 (DE3), purified

How the values were obtained:
Conditions in all cases: both partners purified
[1] = target: T1, Flag-tagged FANCJ wild type (human, UniProt Q9BX63 1-1249); test: pull-down; His10-Myc-AND-1 (12 μg) on c-Myc magnetic beads, purified FANCJ (4 μg) added; PBS, 5% glycerol, 0.5 mM TCEP, 0.2% Igepal, Benzonase, 2 h at 4 °C; Western blot
T1 construct: FANCJ (BRIP1, BACH1) DNA helicase, human, open reading frame; purified as full-length protein; Plasmid from Hisao Masai (Uno et al, 2012); also called FANCJ WT; Flag-FANCJ WT; source: HEK 293T, transiently transfected (pCSII-EF-MCS): in whole-cell extract or nuclear fraction; also purified (anti-Flag M2 agarose, 3x Flag-peptide elution)
T1 sequence (looked up): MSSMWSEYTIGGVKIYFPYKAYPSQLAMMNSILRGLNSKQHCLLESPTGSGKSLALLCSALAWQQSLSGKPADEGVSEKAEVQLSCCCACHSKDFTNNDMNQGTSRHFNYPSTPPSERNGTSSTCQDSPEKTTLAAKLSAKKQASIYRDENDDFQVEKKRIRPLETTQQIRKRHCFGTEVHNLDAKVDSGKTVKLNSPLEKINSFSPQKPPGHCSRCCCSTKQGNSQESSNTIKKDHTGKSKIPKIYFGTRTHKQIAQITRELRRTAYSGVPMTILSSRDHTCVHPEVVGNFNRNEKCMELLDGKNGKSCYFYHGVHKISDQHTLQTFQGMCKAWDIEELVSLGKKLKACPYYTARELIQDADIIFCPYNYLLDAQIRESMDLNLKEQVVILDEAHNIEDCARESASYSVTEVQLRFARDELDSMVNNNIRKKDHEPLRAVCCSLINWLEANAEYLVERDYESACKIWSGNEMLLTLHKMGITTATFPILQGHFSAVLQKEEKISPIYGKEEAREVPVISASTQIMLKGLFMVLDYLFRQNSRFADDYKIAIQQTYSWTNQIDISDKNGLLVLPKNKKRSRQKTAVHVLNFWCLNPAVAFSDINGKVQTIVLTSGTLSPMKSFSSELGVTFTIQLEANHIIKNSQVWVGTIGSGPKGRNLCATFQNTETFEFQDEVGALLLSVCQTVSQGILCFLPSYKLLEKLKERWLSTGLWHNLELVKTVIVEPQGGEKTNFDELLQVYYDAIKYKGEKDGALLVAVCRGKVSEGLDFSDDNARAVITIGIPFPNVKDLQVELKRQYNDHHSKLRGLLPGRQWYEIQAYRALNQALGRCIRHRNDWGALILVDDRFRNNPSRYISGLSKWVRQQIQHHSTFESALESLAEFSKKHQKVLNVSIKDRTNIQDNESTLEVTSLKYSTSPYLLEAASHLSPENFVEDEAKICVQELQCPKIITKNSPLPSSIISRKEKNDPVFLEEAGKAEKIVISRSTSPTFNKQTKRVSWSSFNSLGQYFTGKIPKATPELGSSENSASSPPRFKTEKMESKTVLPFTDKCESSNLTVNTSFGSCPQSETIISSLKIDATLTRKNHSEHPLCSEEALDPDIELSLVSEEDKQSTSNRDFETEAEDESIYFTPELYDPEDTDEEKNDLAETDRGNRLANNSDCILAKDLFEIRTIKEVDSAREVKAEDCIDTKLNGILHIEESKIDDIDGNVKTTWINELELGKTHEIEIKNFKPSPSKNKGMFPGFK

[2] = target: B3; test: pull-down; GST-FANCJ CIP box on Glutathione Sepharose 4B beads, purified AND-1 SepB (0.5 mg in 500 μL) added; PD Buffer 1 with 1% BSA, 1 h at 4 °C; SDS-PAGE, Coomassie
[3] = target: T1, Flag-tagged FANCJ wild type; test: pull-down; Flag-tagged protein (2 µg) on anti-Flag M2 agarose beads, purified AND-1 SepB (4 µg) added; 20 mM HEPES-NaOH pH 7.2, 150 mM NaCl, 0.1% Igepal, 1% BSA, 4 °C; Western blot

B1: full-length 10xHis-Myc-tagged AND-1 (natural protein, human, UniProt O75717 1-1129, looked up)
chain: MPATRKPMRYGHTEGHTEVCFDDSGSFIVTCGSDGDVRIWEDLDDDDPKFINVGEKAYSCALKSGKLVTAVSNNTIQVHTFPEGVPDGILTRFTTNANHVVFNGDGTKIAAGSSDFLVKIVDVMDSSQQKTFRGHDAPVLSLSFDPKDIFLASASCDGSVRVWQISDQTCAISWPLLQKCNDVINAKSICRLAWQPKSGKLLAIPVEKSVKLYRRESWSHQFDLSDNFISQTLNIVTWSPCGQYLAAGSINGLIIVWNVETKDCMERVKHEKGYAICGLAWHPTCGRISYTDAEGNLGLLENVCDPSGKTSSSKVSSRVEKDYNDLFDGDDMSNAGDFLNDNAVEIPSFSKGIINDDEDDEDLMMASGRPRQRSHILEDDENSVDISMLKTGSSLLKEEEEDGQEGSIHNLPLVTSQRPFYDGPMPTPRQKPFQSGSTPLHLTHRFMVWNSIGIIRCYNDEQDNAIDVEFHDTSIHHATHLSNTLNYTIADLSHEAILLACESTDELASKLHCLHFSSWDSSKEWIIDLPQNEDIEAICLGQGWAAAATSALLLRLFTIGGVQKEVFSLAGPVVSMAGHGEQLFIVYHRGTGFDGDQCLGVQLLELGKKKKQILHGDPLPLTRKSYLAWIGFSAEGTPCYVDSEGIVRMLNRGLGNTWTPICNTREHCKGKSDHYWVVGIHENPQQLRCIPCKGSRFPPTLPRPAVAILSFKLPYCQIATEKGQMEEQFWRSVIFHNHLDYLAKNGYEYEESTKNQATKEQQELLMKMLALSCKLEREFRCVELADLMTQNAVNLAIKYASRSRKLILAQKLSELAVEKAAELTATQVEEEEEEEDFRKKLNAGYSNTATEWSQPRFRNQVEEDAEDSGEADDEEKPEIHKPGQNSFSKSTNSSDVSAKSGAVTFSSQGRVNPFKVSASSKEPAMSMNSARSTNILDNMGKSSKKSTALSRTTNNEKSPIIKPLIPKPKPKQASAASYFQKRNSQTNKTEEVKEENLKNVLSETPAICPPQNTENQRPKTGFQMWLEENRSNILSDNPDFSDEADIIKEGMIRFRVLSTEERKVWANKAKGETASEGTEAKKRKRVVDESDETENQEEKAKENLNLSKKQKPLDFSTNQKLSAFAFKQE
notes: AND-1 (WDHD1), human, full length, amino-acid residues 1-1129; pFBDM construct from Luca Pellegrini (Kilkenny et al, 2017); also called His10-Myc-tagged AND-1; AND-1 full-length; source: High-Five insect cells, baculovirus, purified (Ni-NTA, HiTrap Q)
[1]
  binding result: binds

B2: GST-FANCJ CIP box wild type (domain or fragment, human, UniProt Q9BX63 730-747, looked up)
chain: GEKTNFDELLQVYYDAIK
notes: FANCJ (BRIP1), human, CIP box, amino-acid residues 730-747; also called GST-CIP box WT; source: transformed cells cultured in LB medium, IPTG-induced (pGEX-6P-1); captured from the soluble extract on Glutathione Sepharose 4B beads
[2]
  binding result: binds

## B3
[3]
  binding result: binds
